Experimental data published in PMC10320015, “Structural insights into CED-3 activation” (Life Science Alliance, 2023).

B1: CED-4 apoptosome (natural protein, C. elegans)
chain: MLCEIECRALSTAHTRLIHDFEPRDALTYLEGKNIFTEDHSELISKMSTRLERIANFLRIYRRQASELGPLIDFFNYNNQSHLADFLEDYIDFAINEPDLLRPVVIAPQFSRQMLDRKLLLGNVPKQMTCYIREYHVDRVIKKLDEMCDLDSFFLFLHGRAGSGKSVIASQALSKSDQLIGINYDSIVWLKDSGTAPKSTFDLFTDILLMLKSEDDLLNFPSVEHVTSVVLKRMICNALIDRPNTLFVFDDVVQEETIRWAQELRLRCLVTTRDVEISNAASQTCEFIEVTSLEIDECYDFLEAYGMPMPVGEKEEDVLNKTIELSSGNPATLMMFFKSCEPKTFEKMAQLNNKLESRGLVGVECITPYSYKSLAMALQRCVEVLSDEDRSALAFAVVMPPGVDIPVKLWSCVIPVDICSNEEEQLDDEVADRLKRLSKRGALLSGKRMPVLTFKIDHIIHMFLKHVVDAQTIANGISILEQRLLEIGNNNVSVPERHIPSHFQKFRRSSASEMYPKTTEETVIRPEDFPKFMQLHQKFYDSLKNFACC
notes: CED-4, C. elegans; also called CED-4b; CED-4c; source: recombinantly expressed, obtained as previously reported (Qi et al, 2010), purified (SEC)
B2: WT CED-3 CARD (domain or fragment, C. elegans, UniProt P42573 1-91, looked up)
chain: MMRQDRRSLLERNIMMFSSHLKVDEILEVLIAKQVLNSDNGDMINSCGTVREKRREIVKAVQRRGDVAFDAFYDALRSTGHEGLAEVLEPL
notes: CED-3 CARD (caspase recruitment domain), C. elegans; source: E. coli BL21 (DE3), purified (Ni-NTA, Source-15Q anion exchange)
B3: CED-3 catalytic mutant (198–503, C358A) (domain or fragment, C. elegans, UniProt P42573 198-503, looked up)
chain: NRSFSKASGPTQYIFHEEDMNFVDAPTISRVFDEKTMYRNFSSPRGMCLIINNEHFEQMPTRNGTKADKDNLTNLFRCMGYTVICKDNLTGRGMLLTIRDFAKHESHGDSAILVILSHGEENVIIGVDDIPISTHEIYDLLNAANAPRLANKPKIVFVQAARGERRDNGFPVLDSVDGVPAFLRRGWDNRDGPLFNFLGCVRPQVQQVWRKKPSQADILIAYATTAQYVSWRNSARGSWFIQAVCEVFSTHAKDMDVVELLTEVNKKVACGFQTSQGSNILKQMPEMTSRLLKKFYFWPEARNSAV
notes: CED-3 catalytic domain, C. elegans, residues 198-503; also called CED-3 catalytic domain; catalytic mutant (C358A); source: expressed and purified as described previously (Huang et al, 2013)

Legend:
[1] = molecular target: the molecule itself; assay: cryo-EM structure; CED-4 apoptosome alone (Apo dataset), low-salt sample, about 2 uM; 3D classification and refinement
[2] = molecular target: the molecule itself; assay: cryo-EM structure; CED-4/CED-3_CARD complex, assembled at 4°C for 1 h, purified by SEC in 20 mM HEPES pH 7.5, 10 mM KCl, 1.5 mM MgCl2, 1 mM EDTA, 1 mM DTT; about 2 uM
[3] = molecular target: the molecule itself; assay: cryo-EM structure; holoenzyme: ternary complex of CED-4, CED-3 CARD and CED-3 catalytic domain, assembled at 4°C for 1 h, purified by SEC in 20 mM HEPES pH 7.5, 10 mM KCl, 1.5 mM MgCl2, 1 mM EDTA, 1 mM DTT; about 2 uM
CED-4 apoptosome [4] = molecular target: B1; assay: cryo-EM structure; CED-4/CED-3_CARD complex, assembled at 4°C for 1 h, purified by SEC in 20 mM HEPES pH 7.5, 10 mM KCl, 1.5 mM MgCl2, 1 mM EDTA, 1 mM DTT; about 2 uM; conditions: both partners purified
CED-4 apoptosome [5] = molecular target: B1; assay: cryo-EM structure; CED-4/CED-3 catalytic complex: CED-4 incubated with CED-3 (198-503, C358A), assembled at 4°C for 1 h, purified by SEC in 20 mM HEPES pH 7.5, 10 mM KCl, 1.5 mM MgCl2, 1 mM EDTA, 1 mM DTT; about 2 uM; conditions: both partners purified

Binder: B1
stoichiometry N [1]: 7
stoichiometry N [2]: 8
stoichiometry N [3]: 6

Binder: B2
stoichiometry N (CED-4 apoptosome [4]): 4 CED-3 CARDs per octameric CED-4 apoptosome

Binder: B3
binding result (CED-4 apoptosome [5]): binds
